Data reported in US20070218504A1, “HUMAN LEPTIN-DERIVED POLYPEPTIDES AND USES THEREOF” (UNIVERSITY OF PITTSBURGH, priority 2006, published 2007).
“Also recorded” adds a separate entry of the source.

Columns and labels:
human CRP = molecular target: T1, human CRP (Homo sapiens, UniProt P02741); experiment: Polypeptide blocking of human CRP inhibition of leptin-stimulated STAT3 tyrosine phosphorylation in HEK-293 cells over-expressing OB-Rb; type: cell-based; settings: for restoration of leptin-stimulated STAT3 activation in presence of human CRP, Example 8 comparison: human CRP 8 μg/ml, human leptin 2 nM, 1 hour pre-incubation, up to 0.8 μM (800 nM); for effect of polypeptide by itself on STAT phosphorylation: control, polypeptide alone; for blocking of the inhibitory effect of human CRP on leptin signaling (STAT3 tyrosine phosphorylation): polypeptide pre-incubated with human CRP 30 minutes, then human leptin 45 minutes
T1 construct: purchased CHEMICON or EMD Biosciences
T1 sequence (P02741 19-224): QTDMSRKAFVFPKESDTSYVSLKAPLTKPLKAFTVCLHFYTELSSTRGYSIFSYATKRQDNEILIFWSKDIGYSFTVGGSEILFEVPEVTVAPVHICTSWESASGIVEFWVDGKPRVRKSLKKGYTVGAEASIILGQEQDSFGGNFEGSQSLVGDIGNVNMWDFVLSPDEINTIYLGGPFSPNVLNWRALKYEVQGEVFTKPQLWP
Procedure: In the in vitro experiment, each of these polypeptide was pre-incubated with human CRP for 30 minutes before being mixed with human leptin for an additional 45 minutes. The resultant mixture was then added to the HEK-293 cells over-exprssing the long form leptin receptors, OB-Rb. After a 30-minute incubation, the cells were harvested in a protein extraction buffer (18). The signaling of leptin in the cells, measured by its ability to stimulate tyrosine phosphorylation on STAT3 in a western blot assay, was evaluated (see FIGS. 8, 9, 10 for polypeptides B, C1 and E, respectively).
Pursuant to an in vitro protocol similar to that described in Example 6, a hexamer disclosed in U.S. Pat. No. 6,777,388, NH2—S—C—H-L-P—W—COOH (SEQ ID NO:18), was pre-incubated with human CRP (8 μg/ml) and human leptin (2 nM) for 1 hour. The resultant mixture then was added to HEK-293 cells that over-expressed the long form leptin receptor, OB—Rb. After a 30-minute incubation, the cells were harvested in a protein extraction buffer. To evaluate signaling of human leptin in the cells, tyrosine phosphorylation on STAT3 was measured in a western blot assay.

[1] = molecular target: long-form human leptin receptor, OB-Rb (human) (UniProt P48357); experiment: 125I-human leptin binding to HEK293 cells stably transfected with human OB-Rb
long-form human leptin receptor, OB-Rb (human), sequence (P48357 22-1165): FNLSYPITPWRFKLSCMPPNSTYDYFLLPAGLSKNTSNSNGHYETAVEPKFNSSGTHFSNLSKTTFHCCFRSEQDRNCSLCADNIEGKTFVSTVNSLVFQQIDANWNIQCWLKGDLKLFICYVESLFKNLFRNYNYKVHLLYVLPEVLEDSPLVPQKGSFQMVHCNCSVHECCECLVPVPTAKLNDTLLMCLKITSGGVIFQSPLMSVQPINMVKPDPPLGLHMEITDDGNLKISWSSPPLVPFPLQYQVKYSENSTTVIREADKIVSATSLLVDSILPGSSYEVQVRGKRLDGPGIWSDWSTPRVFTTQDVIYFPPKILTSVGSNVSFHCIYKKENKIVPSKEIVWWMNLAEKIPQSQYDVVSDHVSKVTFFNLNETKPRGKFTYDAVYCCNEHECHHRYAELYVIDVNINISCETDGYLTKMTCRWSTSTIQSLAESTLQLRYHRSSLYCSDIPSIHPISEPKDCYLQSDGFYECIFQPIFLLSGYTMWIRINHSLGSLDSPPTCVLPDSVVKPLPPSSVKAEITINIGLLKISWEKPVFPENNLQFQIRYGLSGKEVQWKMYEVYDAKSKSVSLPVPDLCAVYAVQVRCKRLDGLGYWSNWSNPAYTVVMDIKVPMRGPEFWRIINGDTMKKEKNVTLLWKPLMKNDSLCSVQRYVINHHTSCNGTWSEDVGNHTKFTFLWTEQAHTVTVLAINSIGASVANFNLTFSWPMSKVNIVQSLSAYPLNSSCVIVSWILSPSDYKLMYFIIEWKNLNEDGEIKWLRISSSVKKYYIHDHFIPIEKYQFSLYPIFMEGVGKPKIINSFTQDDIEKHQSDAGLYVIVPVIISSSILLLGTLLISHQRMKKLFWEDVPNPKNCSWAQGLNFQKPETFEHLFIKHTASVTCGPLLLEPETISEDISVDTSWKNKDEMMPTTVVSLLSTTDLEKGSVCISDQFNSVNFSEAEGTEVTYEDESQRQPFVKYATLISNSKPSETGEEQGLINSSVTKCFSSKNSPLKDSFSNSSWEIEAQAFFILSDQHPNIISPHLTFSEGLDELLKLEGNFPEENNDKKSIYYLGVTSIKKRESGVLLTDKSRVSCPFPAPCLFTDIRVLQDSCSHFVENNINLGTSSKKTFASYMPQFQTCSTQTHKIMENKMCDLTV

ob/ob mice [2] = experiment: Co-infusion of polypeptide E with human CRP and leptin through mini-osmotic pumps into ob/ob mice; type: in vivo, mouse; settings: for restoration of satiety and weight-reducing effects of human leptin (food intake, body weight): Pep-E 24 or 48 μg/day/mouse with human CRP 48 μg/day/mouse and leptin 12 μg/day/mouse
Procedure: FIG. 11. […] Infusion dosages for human CRP and leptin were 48 μg/day/mouse and 12 μg/day/mouse, respectively. The infusion rate for Pep-E (P) was 24 μg/day/mouse (medium dosage, “m”) and 48 μg/day/mouse (high dosage, “h”). Food-intake (A and C) and body weight (B and D) were monitored daily throughout the infusion. The arrows in A-D indicate the day of surgery. At the end of infusion, blood samples were collected for the measurement of blood-glucose, human CRP, and human leptin. The serum concentrations of human CRP and human leptin were 0.85±0.1 μg/ml and 18 ng±2 ng/ml, respectively. […] Also shown is glucose concentration from mice infused with human CRP and leptin but not with Pep-E.
In the in vivo experiment, polypeptide E was co-infused through mini-osmotic pumps with human CRP and leptin into the ob/ob mice. Food intake in the period of 24 hours and body weight were followed during the infusion period (FIGS. 11A-11D).

[3] = system: tyrosine phosphorylation of STAT3; experiment: Leptin-induced tyrosine phosphorylation of STAT3 in HEK293 cells over-expressing OB-Rb in the presence of CRP (Western blot); type: cell-based, human; settings: separate control, concentrations much higher than CRP
Procedure: To determine if the interaction between CRP and leptin dampens the cellular actions of leptin, the ability of leptin to stimulate tyrosine phosphorylation of STAT3 and PI3-kinase activity was assessed in the presence of CRP in vitro. HEK293 cells over-expressing OB-Rb were serum starved for 2 hours before addition of leptin and CRP (CHEMICON or EMD Biosciences). Leptin, in the presence or absence of CRP, was pre-incubated in μ-MEM (with additional 1 mM Ca^2+) for 30 minutes at 37° C. before being applied to the cells. After a 30-minute incubation with leptin, the cells were harvested in lysis buffer (18). The resultant protein extract was subjected to a Western blot analysis using an anti-phospho-STAT3 specific antibody (Cell Signaling, Beverly, Mass.). For studies involving primary hypothalamic neurons, the hypothalamus from rats was surgically isolated immediately after euthanasia, and placed in the DMEM for incubation with leptin in the presence or absence of CRP.

rat C-reactive protein = molecular target: T2, rat C-reactive protein (rat, UniProt P48199 20-230); experiment: rat serum on mouse leptin-Sepharose affinity column; eluted band identified by MALDI-TOF
T2 construct: mature; also called rat CRP; rat SLIP-1
T2 sequence (looked up): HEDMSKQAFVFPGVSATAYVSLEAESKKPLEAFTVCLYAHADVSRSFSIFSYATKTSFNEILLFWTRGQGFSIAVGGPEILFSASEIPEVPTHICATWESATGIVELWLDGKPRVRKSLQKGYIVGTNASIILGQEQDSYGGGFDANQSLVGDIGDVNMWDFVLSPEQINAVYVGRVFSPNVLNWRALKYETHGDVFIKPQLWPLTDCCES
Procedure: Retained material was eluted with an acidic glycine solution, and the eluate was immediately neutralized in a Tris-buffer (50 mM, pH=9.5).
The mass-spec assay was performed on Thermo Finnigan LTQ mass spectrometer by CTO-BIO Services (Rockville, Md.). Data analysis was carried out with the Turbo-Sequest software.

ob/ob mice [4] = experiment: Intracerebralventricular (i.c.v.) injection of human CRP and leptin in ob/ob mice, food intake and body weight; type: in vivo, mouse
human leptin = molecular target: T3, human leptin (human, UniProt P41159 22-167, 125I-labelled (Iodogen method) in the receptor binding assay of Example 3); experiment: human CRP pre-incubated with 125I-human leptin (~2 ng/ml); inhibition of leptin binding to OB-Rb on HEK293 cells
T3 construct: Recombinant human leptin from AF Parlow, NHPP; also called recombinant human leptin
Procedure: After 10-minute incubation at room temperature, the reaction was stopped with 100 μl 0.1% trifluoroacetic acid (TFA). The reaction mixture was immediately purified by reverse-phase HPLC. The separation employed a 5-minute isocratic step at 20% eluant B in A, followed by two consecutive 30 min linear gradients from 20 to 50%, then from 50 to 60% eluant B in A (where eluant A is water containing 0.1% TFA and eluant B is acetonitrile containing 0.1% TFA) at a flow rate of 1.5 ml/min. […] The incubation would last for 3 hour at 4° C. before the media was aspirated and the cells were dissolved in 0.1N NaOH for scintillation counting.

[5] = mouse leptin i.c.v. after human CRP

Q: How did the “restoration of leptin-stimulated STAT3 activation in presence of human CRP, Example 8 comparison” value (shortened to “restoration … Example 8 comparison”) (human CRP) turn out when “H-WPLHCS-OH [D-form, reference compound]” was run?
A: failed to restore

Q: With “human leptin (from UniProt P41159 22-167) (ligand)” as the molecule, how does the Kd [1] read?
A: 1 nM

Q: How did the “effect of polypeptide by itself on STAT phosphorylation” value (“effect of polypeptide by itself” below) (human CRP) turn out when “LAFSKSCHLPWASGLETLDSLGGVLEA (listed as Homo sapiens) [polypeptide E, chemically synthesized human leptin-derived polypeptide, residues 111 to 137]” was run?
A: did not induce any changes; also recorded: does not have any effect

Q: And the “effect of polypeptide by itself” value (human CRP; listed as Peptide-E)?
A: did not induce any changes

Q: And the “restoration … Example 8 comparison” value (human CRP)?
A: able to restore

Q: And the “restoration … Example 8 comparison” value (human CRP; listed as Peptide-E)?
A: blocked the inhibitory effect

Q: What about the “blocking of the inhibitory effect of human CRP on leptin signaling (STAT3 tyrosine phosphorylation)” value (human CRP) of the same molecule?
A: able to block the inhibitory effect of human CRP and to restore leptin signaling

Q: What about the “restoration of satiety and weight-reducing effects of human leptin (food intake, body weight)” value (ob/ob mice [2]) of the same molecule?
A: able to restore both of these functions

Q: And the “restoration of satiety and weight-reducing effects of human leptin (food intake, body weight)” value (ob/ob mice [2]; listed as Peptide-E)?
A: restored the physiological effects of human leptin

Q: What about the “restoration of effect of human leptin on blood glucose” value (ob/ob mice [2]; end of infusion, high dosage Pep-E) of the same molecule?
A: able to restore the beneficial effect

Q: “VSSKQKVTGLDFIPGLHPILTLSKM (listed as Homo sapiens) [polypeptide C1, chemically synthesized human leptin-derived polypeptide, residues 51 to 75]” was tested. Which “concentration at which the maximal effect can be reached” value (human CRP; FIG. 9A) did it give?
A: 50 nM

Q: What about the “effect of higher concentration” value (human CRP; FIG. 9B) of the same molecule?
A: does not further improve its effect

Q: And the “relative effectiveness in blocking the CRP activity on leptin” value (human CRP; compared with the other polypeptides)?
A: more effective at a lower concentration

Q: What about the “effect of polypeptide by itself” value (human CRP) of the same molecule?
A: did not induce any changes; also recorded: does not have any effect

Q: What about the “blocking of the inhibitory effect of human CRP on leptin signaling (STAT3 tyrosine phosphorylation)” value (human CRP) of the same molecule?
A: able to block the inhibitory effect of human CRP and to restore leptin signaling

Q: Which “effect of control serum protein on leptin-induced STAT3 phosphorylation / leptin signaling” value [3] does the source give for “human serum amyloid P component: control serum protein circulating at much higher concentrations than CRP [reference compound]” here?
A: did not influence leptin signaling

Q: What does the source list for “NH2—S—C—H-L-P—W—COOH (H-SCHLPW-OH) [hexamer, hexamer disclosed in U.S. Pat. No. 6,777,388, reference compound]”?
A: restoration of leptin-stimulated STAT3 activation in presence of human CRP, Example 8 comparison (human CRP): unable to block; restoration of leptin-stimulated STAT3 activation in presence of human CRP, Example 8 comparison (human CRP; listed as L-form): failed to restore

Q: How did the “effect of polypeptide by itself” value (human CRP) turn out when “KVQDDTKTLIKTIVTRINDISHTQS (listed as Homo sapiens) [polypeptide B, chemically synthesized human leptin-derived polypeptide, residues 26 to 50]” was run?
A: did not induce any changes; also recorded: does not have any effect

Q: And the “blocking of the inhibitory effect of human CRP on leptin signaling (STAT3 tyrosine phosphorylation)” value (human CRP)?
A: able to block the inhibitory effect of human CRP and to restore leptin signaling

B1: mouse leptin (ligand, UniProt P41160 22-167, looked up)
chain: VPIQKVQDDTKTLIKTIVTRINDISHTQSVSAKQRVTGLDFIPGLHPILSLSKMDQTLAVYQQVLTSLPSQNVLQIANDLENLRDLLHLLAFSKSCSLPQTSGLQKPESLDGVLEASLYSTEVVALSRLQGSLQDILQQLDVSPEC
modifications: 125I-labelled in the receptor binding assay of FIG. 4B
notes: also called murine-leptin; recombinant mouse leptin
Q: Does B1 bind (rat C-reactive protein)?
A: binds

B2: Mouse leptin: mouse recombinant leptin (protein)
chain: B1 chain
Q: What does the source list for B2?
A: decrease of food intake, PBS pre-injection (ob/ob mice [4]; mouse leptin i.c.v. after PBS): 32.9%; reduction of body weight, PBS pre-injection (ob/ob mice [4]; mouse leptin i.c.v. after PBS): 1.80%; decrease of food intake, human CRP pre-injection (ob/ob mice [4]; [5]): 32.4%; reduction of body weight, human CRP pre-injection (ob/ob mice [4]; [5]): 1.76%

B3: human C-reactive protein (other, UniProt P02741 19-224, looked up)
chain: T1 sequence (P02741 19-224)
notes: also called human CRP; CRP
Q: Which IC50 (human leptin) does the source give for B3 here?
A: ~0.08 µg/mL

Q: And the “molecular ratio (CRP:leptin) at the IC50” value (human leptin)?
A: 5.8
